According to patent publication US9745607B2, “Methods of producing 6-carbon chemicals using 2,6-diaminopimelate as precursor to 2-aminopimelate” (INVISTA North America S.á r.l., priority 2014, dated 2017):

How the values were obtained:
Type in all cases: biochemical
[1] = ω-transaminase enzyme activity assay, reverse direction (6-aminohexanoate to adipate semialdehyde); details: cell free extract, 10 mM 6-aminohexanoate, 10 mM pyruvate, pH 7.5, 25° C., 24 h, RP-HPLC, against the empty vector control
Description: (§1) A nucleotide sequence encoding a His-tag was added to the genes from Chromobacterium violaceum, Pseudomonas aeruginosa, Pseudomonas syringae, Rhodobacter sphaeroides, and Vibrio Fluvialis encoding the ω-transaminases of SEQ ID NOs: 8, 9, 10, 11 and 13, respectively (see FIG. 20E and FIG. 20F) such that N-terminal HIS tagged ω-transaminases could be produced. Each of the resulting modified genes was cloned into a pET21a expression vector under control of the T7 promoter and each expression vector was transformed into a BL21[DE3] E. coli host. The resulting recombinant E. coli strains were cultivated at 37° C. in a 250 mL shake flask culture containing 50 mL LB media and antibiotic selection pressure, with shaking at 230 rpm. Each culture was induced overnight at 16° C. using 1 mM IPTG.
(§2) The pellet from each induced shake flask culture was harvested via centrifugation. Each pellet was resuspended and lysed via sonication. The cell debris was separated from the supernatant via centrifugation and the cell free extract was used immediately in enzyme activity assays.
Enzyme activity assays in the reverse direction (i.e., 6-aminohexanoate to adipate semialdehyde) were performed in a buffer composed of a final concentration of 50 mM HEPES buffer (pH=7.5), 10 mM 6-aminohexanoate, 10 mM pyruvate and 100 μM pyridoxyl 5′ phosphate. Each enzyme activity assay reaction was initiated by adding cell free extract of the ω-transaminase gene product or the empty vector control to the assay buffer containing the 6-aminohexanoate and incubated at 25° C. for 24 h, with shaking at 250 rpm. The formation of L-alanine from pyruvate was quantified via RP-HPLC.

[2] = ω-transaminase enzyme activity assay, forward direction (adipate semialdehyde to 6-aminohexanoate); details: cell free extract, 10 mM adipate semialdehyde, 10 mM L-alanine, pH 7.5, 25° C., 4 h, RP-HPLC, against the empty vector control
Description: as §1, §2
Enzyme activity in the forward direction (i.e., adipate semialdehyde to 6-aminohexanoate) was confirmed for the transaminases of SEQ ID NO 8, SEQ ID NO 9, SEQ ID NO 10, SEQ ID NO 11 and SEQ ID NO 13. Enzyme activity assays were performed in a buffer composed of a final concentration of 50 mM HEPES buffer (pH=7.5), 10 mM adipate semialdehyde, 10 mM L-alanine and 100 μM pyridoxyl 5′ phosphate. Each enzyme activity assay reaction was initiated by adding a cell free extract of the ω-transaminase gene product or the empty vector control to the assay buffer containing the adipate semialdehyde and incubated at 25° C. for 4 h, with shaking at 250 rpm. The formation of pyruvate was quantified via RP-HPLC.

[3] = carboxylate reductase enzyme activity assay (adipate semialdehyde to hexanedial); details: purified enzyme enhanced by the gene product of sfp, 2 mM adipate semialdehyde, pH 7.5, room temperature, 20 min, against the empty vector control
Description: The N-terminal His-tagged carboxylate reductase of SEQ ID NO 7 (see Example 2 and FIG. 20E) was assayed using adipate semialdehyde as substrate. The enzyme activity assay was performed in triplicate in a buffer composed of a final concentration of 50 mM HEPES buffer (pH=7.5), 2 mM adipate semialdehyde, 10 mM MgCl2, 1 mM ATP and 1 mM NADPH. The enzyme activity assay reaction was initiated by adding purified carboxylate reductase and phosphopantetheine transferase or the empty vector control to the assay buffer containing the adipate semialdehyde and then incubated at room temperature for 20 min. The consumption of NADPH was monitored by absorbance at 340 nm.

| Molecule | ω-transaminase activity: acceptance of 6-aminohexanoate as substrate (formation of L-alanine from pyruvate) [1] | ω-transaminase activity: acceptance of adipate semialdehyde as substrate (formation of pyruvate from L-alanine) [2] | carboxylate reductase activity: acceptance of adipate semialdehyde as substrate (consumption of NADPH, absorbance at 340 nm) [3] |
| --- | --- | --- | --- |
| SEQ ID NO 7: Segniliparus rotundus carboxylate reductase, N-terminal HIS tagged (protein, listed as Segniliparus rotundus, N-terminal His tag, Segniliparus rotundus carboxylate reductase, N-terminal HIS tagged) MTQSHTQGPQASAAHSRLARRAAELLATDPQAAATLPDPEVVRQATRPGLRLAERVDAILSGYADRPALGQRSFQTVKDPITGRSSVELLPTFDTITYRELRERATAIASDLAHHPQAPAKPGDFLASIGFISVDYVAIDIAGVFAGLTAVPLQTGATLATLTAITAETAPTLFAASIEHLPTAVDAVLATPSVRRLLVFDYRAGSDEDREAVEAAKRKIADAGSSVLVDVLDEVIARGKSAPKAPLPPATDAGDDSLSLLIYTSGSTGTPKGAMYPERNVAHFWGGVWAAAFDEDAAPPVPAINITFLPLSHVASRLSLMPTLARGGLMHFVAKSDLSTLFEDLKLARPTNLFLVPRVVEMLYQHYQSELDRRGVQDGTREAEAVKDDLRTGLLGGRILTAGFGSAPLSAELAGFIESLLQIHLVDGYGSTEAGPVWRDGYLVKPPVTDYKLIDVPELGYFSTDSPHPRGELAIKTQTILPGYYKRPETTAEVFDEDGFYLTGDVVAQIGPEQFAYVDRRKNVLKLSQGEFVTLAKLEAAYSSSPLVRQLFVYGSSERSYLLAVIVPTPDALKKFGVGEAAKAALGESLQKIARDEGLQSYEVPRDFIIETDPFTVENGLLSDARKSLRPKLKEHYGERLEAMYKELADGQANELRDIRRGVQQRPTLETVRRAAAAMLGASAAEIKPDAHFTDLGGDSLSALTFSNFLHDLFEVDVPVGVIVSAANTLGSVAEHIDAQLAGGRARPTFATVHGKGSTTIKASDLTLDKFIDEQTLEAAKHLPKPADPPRTVLLTGANGWLGRFLALEWLERLAPAGGKLITIVRGKDAAQAKARLDAAYESGDPKLAGHYQDLAATTLEVLAGDFSEPRLGLDEATWNRLADEVDFISHPGALVNHVLPYNQLFGPNVAGVAEIIKLAITTRIKPVTYLSTVAVAAGVEPSALDEDGDIRTVSAERSVDEGYANGYGNSKWGGEVLLREAHDRTGLPVRVFRSDMILAHQKYTGQVNATDQFTRLVQSLLATGLAPKSFYELDAQGNRQRAHYDGIPVDFTAESITTLGGDGLEGYRSYNVFNPHRDGVGLDEFVDWLIEAGHPITRIDDYDQWLSRFETSLRGLPESKRQASVLPLLHAFARPGPAVDGSPFRNTVFRTDVQKAKIGAEHDIPHLGKALVLKYADDIKQLGLL |  |  | accepted adipate semialdehyde as substrate |
| SEQ ID NO 10: Pseudomonas syringae ω-transaminase, N-terminal HIS tagged (protein, listed as Pseudomonas syringae, N-terminal His tag, Pseudomonas syringae ω-transaminase, N-terminal HIS tagged) MSANNPQTLEWQALSSEHHLAPFSDYKQLKEKGPRIITRAEGVYLWDSEGNKILDGMSGLWCVAIGYGREELADAASKQMRELPYYNLFFQTAHPPVLELAKAISDIAPEGMNHVFFTGSGSEGNDTMLRMVRHYWALKGQPNKKTIISRVNGYHGSTVAGASLGGMTYMHEQGDLPIPGVVHIPQPYWFGEGGDMTPDEFGIWAAEQLEKKILELGVENVGAFIAEPIQGAGGVIVPPDSYWPKIKEILSRYDILFAADEVICGFGRTSEWFGSDFYGLRPDMMTIAKGLTSGYVPMGGLIVRDEIVAVLNEGGDFNHGFTYSGHPVAAAVALENIRILREEKIVERVRSETAPYLQKRLRELSDHPLVGEVRGVGLLGAIELVKDKTTRERYTDKGAGMICRTFCFDNGLIMRAVGDTMIIAPPLVISFAQIDELVEKARTCLDLTLAVLQG | accepted 6-aminohexanote as substrate | accepted adipate semialdehyde as substrate |  |
| SEQ ID NO 9: Pseudomonas aeruginosa ω-transaminase, N-terminal HIS tagged (protein, listed as Pseudomonas aeruginosa, N-terminal His tag, Pseudomonas aeruginosa ω-transaminase, N-terminal HIS tagged) MNARLHATSPLGDADLVRADQAHYMHGYHVFDDHRVNGSLNIAAGDGAYIYDTAGNRYLDAVGGMWCTNIGLGREEMARTVAEQTRLLAYSNPFCDMANPRAIELCRKLAELAPGDLDHVFLTTGGSTAVDTAIRLMHYYQNCRGKRAKKHVITRINAYHGSTFLGMSLGGKSADRPAEFDFLDERIHHLACPYYYRAPEGLGEAEFLDGLVDEFERKILELGADRVGAFISEPVFGSGGVIVPPAGYHRRMWELCQRYDVLYISDEVVTSFGRLGHFFASQAVFGVQPDIILTAKGLTSGYQPLGACIFSRRIWEVIAEPDKGRCFSHGFTYSGHPVACAAALKNIEIIEREGLLAHADEVGRYFEERLQSLRDLPIVGDVRGMRFMACVEFVADKASKALFPESLNIGEWVHLRAQKRGLLVRPIVHLNVMSPPLILTREQVDTVVRVLRESIEETVEDLVRAGHR |  | accepted adipate semialdehyde as substrate |  |

Further lines, with some results ahead:

| ω-transaminase activity: acceptance of 6-aminohexanoate as substrate (formation of L-alanine from pyruvate) [1] | Molecule | ω-transaminase activity: acceptance of adipate semialdehyde as substrate (formation of pyruvate from L-alanine) [2] | carboxylate reductase activity: acceptance of adipate semialdehyde as substrate (consumption of NADPH, absorbance at 340 nm) [3] |
| --- | --- | --- | --- |
| accepted 6-aminohexanote as substrate | SEQ ID NO 11: Rhodobacter sphaeroides ω-transaminase, N-terminal HIS tagged | accepted adipate semialdehyde as substrate |  |
| accepted 6-aminohexanote as substrate | SEQ ID NO 8: Chromobacterium violaceum ω-transaminase, N-terminal HIS tagged (protein, listed as Chromobacterium violaceum, N-terminal His tag, Chromobacterium violaceum ω-transaminase, N-terminal HIS tagged) MQKQRTTSQWRELDAAHHLHPFTDTASLNQAGARVMTRGEGVYLWDSEGNKIIDGMAGLWCVNVGYGRKDFAEAARRQMEELPFYNTFFKTTHPAVVELSSLLAEVTPAGFDRVFYTNSGSESVDTMIRMVRRYWDVQGKPEKKTLIGRWNGYHGSTIGGASLGGMKYMHEQGDLPIPGMAHIEQPWWYKHGKDMTPDEFGVVAARWLEEKILEIGADKVAAFVGEPIQGAGGVIVPPATYWPEIERICRKYDVLLVADEVICGFGRTGEWFGHQHFGFQPDLFTAAKGLSSGYLPIGAVFVGKRVAEGLIAGGDFNHGFTYSGHPVCAAVAHANVAALRDEGIVQRVKDDIGPYMQKRWRETFSRFEHVDDVRGVGMVQAFTLVKNKAKRELFPDFGEIGTLCRDIFFRNNLIMRACGDHIVSAPPLVMTRAEVDEMLAVAERCLEEFEQTLKARGLA | accepted adipate semialdehyde as substrate |  |
| accepted 6-aminohexanote as substrate | SEQ ID NO 13: Vibrio fluvialis ω-transaminase, N-terminal HIS tagged (protein, listed as Vibrio fluvialis, N-terminal His tag, Vibrio fluvialis ω-transaminase, N-terminal HIS tagged) MNKPQSWEARAETYSLYGFTDMPSLHQRGTVVVTHGEGPYIVDVNGRRYLDANSGLWNMVAGFDHKGLIDAAKAQYERFPGYHAFFGRMSDQTVMLSEKLVEVSPFDSGRVFYTNSGSEANDTMVKMLWFLHAAEGKPQKRKILTRWNAYHGVTAVSASMTGKPYNSVFGLPLPGFVHLTCPHYWRYGEEGETEEQFVARLARELEETIQREGADTIAGFFAEPVMGAGGVIPPAKGYFQAILPILRKYDIPVISDEVICGFGRTGNTWGCVTYDFTPDAIISSKNLTAGFFPMGAVILGPELSKRLETAIEAIEEFPHGFTASGHPVGCAIALKAIDVVMNEGLAENVRRLAPRFEERLKHIAERPNIGEYRGIGFMWALEAVKDKASKTPFDGNLSVSERIANTCTDLGLICRPLGQSVVLCPPFILTEAQMDEMFDKLEKALDKVFAEVA | accepted adipate semialdehyde as substrate |  |
